From patent publication US11180762B2, “Methods and compositions for the treatment of cancer” (CHILDREN'S MEDICAL CENTER CORPORATION, priority 2014, dated 2021)
Entries after “also recorded” stand apart in the source; their conditions may differ.

Legend:
[1] = Serum stability, serum species not stated; assay type: in vitro ADME; conditions: 2'-fluoropyrimidine AsiC
[2] = tested on: co-cultures of GFP− TNBC cells and GFP+ BPE cells; assay: Co-culture of tumor cells with GFP+ BPE cells, relative survival by flow cytometry; assay type: cell-based, human
Description: To determine whether EpCAM-AsiCs specifically target EpCAM+ cells when mixed with EpCAM^dim non-transformed epithelial cells, we incubated co-cultures of GFP− TNBC cells and GFP+ BPE cells with PLK1 EpCAM-AsiCs or medium and used GFP fluorescence to measure their relative survival by flow cytometry 3 days later (FIG. 2D, 2E). […] Thus PLK1 EpCAM-AsiCs are selectively cytotoxic for EpCAM+ tumor cells when mixed with normal cells.
To understand whether EpCAM-AsiC can specifically target basal A and luminal breast cancer cells and inhibit proliferation we designed an EpCAM-AsiC targeting PLK1. PLK1 is a known trigger for […] transition. The effect of EpCAM-AsiC targeting PLK1 on cell proliferation was tested on 10 breast cancer cells representative of basal A, B and luminal cell lines. […] A correlation was seen between EpCAM expression levels and cell viability (FIG. 27B). To understand if EpCAM-AsiC will specifically target EpCAM+ cells in a mix cell population HCC1937 (EpCAM+GFP−) cell were co-cultured with BPE (EpCAM-GFP+) cells and treated with EpCAM-AsiC targeting PLK1 or untreated. […] The co-culture was repeated with other basal A cell lines (MB468 and HCC1143) similar reults were obtained. When BPE cells were grown in a co-culture with basal B cell (MB231) the ratio between BPE and MB231 cells stayed the same regardless of the EpCAM-AsiC treatment (66% BPE and 33% MB231 in untreated co-culture and 61% BPE and 38% MB231 following EpCAM-AsiC treatment) (FIG. 27C, 27D).

[3] = tested on: subcutaneous tumors; assay: Tumor accumulation after intravenous injection of fluorescent EpCAM-AsiCs; assay type: in vivo, nude mice; conditions: tail vein
Description: To be clinically useful, EpCAM-AsiCs need to be taken up by disseminated tumor cells. […] The EpCAM-AsiCs were detected around the injection site on day 2, but were only found within the EpCAM+ tumor on day 4.

[4] = tested on: MB468-luc tumors; assay: Tumor inhibition, EpCAM+ MB468-luc xenograft; assay type: in vivo, nude mice; conditions: for growth of EpCAM+ MB468 tumors: 5 mg/kg sc every 3 d (72 h) for 2 wks
Description: For tumor inhibition studies, MB468-luc (5×10^6) and MB231-luc-mCherry (5×10^5) cells trypsinized with Tryple Express (Invitrogen), resuspended in a 1:1 WIT-Matrigel solution and injected subcutaneously in the flank of 8-week old female Nu/J mice (Stock #002019, Jackson Laboratories). Tumors size was analyzed daily using the IVIS Spectra, after 5 days tumors were clearly visible. […] Mice were treated every 72 h for 14 days.

[5] = tested on: basal-A, luminal and basal-B breast cancer cell lines; assay: Cell proliferation/viability by CellTiter-Glo in 10 breast cancer cell lines; assay type: cell-based, human
Description: To explore whether EpCAM-AsiCs could be used as anti-tumor agents in breast cancer, we examined by CellTiterGlo assay the effect of AsiCs directed against PLK1, a kinase required for mitosis, on survival of 10 breast cancer cell lines that included 5 basal-A TNBCs, 2 luminal cell lines, and 3 basal-B TNBCs. […] The anti-proliferative effect strongly correlated with EpCAM expression (FIG. 2B). The reduction in viable EpCAM+ cells after knockdown was due to induction of apoptosis, assessed by annexin V-propidium iodide staining and caspase activation (data not shown). To determine whether ligation of the EpCAM aptamer contributed to the anti-proliferative effect of the EpCAM-AsiC, we compared survival of cells that were treated with the PLK1 EpCAM-AsiC with cells treated with the aptamer on its own (FIG. 2C). […] Thus the PLK1 EpCAM-AsiC asserts its specific anti-tumor effect on EpCAM+ breast cancer cells by gene knockdown.
For uptake and silencing treatment, cells were plated at low density (10,000 cells/well in 96-well plates) and treated immediately. All AsiC and siRNA treatments were performed in either OptiMEM or WIT medium. Cell viability was assessed by CellTiter-Glo (Promega) or by Trypan-Blue staining in 96-well plates.

[6] = tested on: Argonaute (AGO); assay: PLK1 siRNA association with Argonaute (pan-AGO immunoprecipitation, qRT-PCR); assay type: cell-based, human; conditions: MDA-MB-468 cells treated 2 days; listed as PLK1 EpCAM-AsiCs
Description: MB-468 cells, treated with PLK1 EPCAM-AsiC or siRNA for 2 days, were lysed, and cell lysates were immunoprecipitated with pan-AGO antibody or IgG isotype control. The amount of PLK1 siRNA in the immunoprecipitates was quantified by Taqman qRT-PCR, presented as log2 mean with SEM, relative to miR-16. **, P<0.01 by Student's t-test relative to siRNA-treated cells. ND, not detectable. […] This is likely because most RNAs that are taken up by cells are not released from endosomes to the cytosol (A. Wittrup et al., Visualizing lipid-formulated siRNA release from endosomes and target gene knockdown. Nature Biotechnology 2015, in press).
Uptake was clearly detected at 22 hr, but increased greatly after 43 hr. To test whether EpCAM-AsiCs are specifically taken up by EpCAM bright cell lines, the 3′ end of the antisense strand of the AsiC was fluorescently labeled. […] Previous studies have shown that AsiCs are processed within cells by Dicer to release the siRNA from the aptamer (10, 12, 15).

[7] = listed as EpCAM-AsiC targeting PLK1
[8] = listed as EpCAM-AsiCs targeting PLK1

B1: EpCAM-AsiC: EpCAM aptamer-siRNA chimera, siRNA cargo not specified at the place; 2'-fluoropyrimidines, 3'-dTdT (nucleic acid)
sense: GCGACUGGUUACCCGGUCGUUUUGAAGAAGAUCACCCUCCUUATT
antisense: UAAGGAGGGUGAUCUUCUUCATT
modifications: DNA at T, 2'-fluoro at CU, RNA at AG, backbone not given here; further chemistry not fully specified
notes: EpCAM aptamer-siRNA chimera, siRNA cargo not specified at the place; 2'-fluoropyrimidines, 3'-dTdT
For B1, the “serum T1/2” value [1] was over 72 h, the “decrease of the proportion of surviving tumor cells” value ([2]; BPE mixed with epithelial TNBC lines, after 3 d) was 7 fold and the “tumor accumulation after intravenous injection” value [3] was “did not lead to significant AsiC accumulation within subcutaneous tumors”. For the same molecule, the “injections until complete tumor regression” value ([4]; very aggressive TNBC xenograft model) was 3 injections.

B2: PLK1 EpCAM-AsiC: EpCAM aptamer linked by U-U-U to PLK1 siRNA sense strand (SEQ ID NO: 1), annealed to antisense strand (SEQ ID NO: 2) (nucleic acid)
sense: B1 sense
antisense: UAAGGAGGGUGAUCUUCUUCATT
modifications: DNA at T, 2'-fluoro at CU, RNA at AG, backbone not given here; EpCAM aptamer fused to sense strand
With B2 the “cell proliferation/viability, basal-A and luminal (EpCAM+) lines” value [5, 7] was “displayed a decrease in cell viability; also recorded: decreased cell proliferation in both basal A and luminal cell lines; also recorded: suppressed cell viability in basal A and luminal cell lines”, the “cell proliferation/viability, basal-B lines” value [5, 7] was “having no effect on basal B cells” and the “cell proliferation/viability, basal-A and luminal (EpCAM+) lines” value [5, 8] was “decreased cell proliferation”. The “cell proliferation/viability, basal-B lines” value [5, 8] was “did not inhibit basal-B cells”, the “proportion of surviving EpCAM+ basal-A tumor cells” value ([2]; 3 days) was “greatly reduced the proportion of surviving EpCAM+ basal-A tumor cells” and the “survival of an EpCAM− basal-B cell line in co-culture” value ([2]; 3 days) was “had no effect on survival of an EpCAM− basal-B cell line”. For the same molecule, the “share of EpCAM− (BPE) cells in co-culture after treatment” value ([2]; HCC1937 + BPE, untreated 41% BPE) was 83%, the “share of EpCAM+ (HCC1937) cells in co-culture after treatment” value ([2]; HCC1937 + BPE, untreated 59% HCC1937) was 17% and the “share of MB231 cells in co-culture after treatment” value ([2]; MB231 + BPE, untreated 33% MB231) was 38%. For the same molecule, the “share of BPE cells in co-culture after treatment” value ([2]; MB231 + BPE, untreated 66% BPE) was 61%, the “time at which tumors completely disappeared in many mice” value ([4]; 5 mg/Kg every 72 h) was 14 days and the “time of first tumor shrinkage” value ([4]; 5 mg/Kg every 72 h) was 6 days. The “growth of EpCAM+ MB468 tumors” value [4] was “regress only after treatment with PLK1 EpCAM-AsiC”, the “growth of EpCAM+ MB468 tumors” value ([4]; listed as PLK1-targeting AsiCs) was “rapidly completely regressed” and the “growth of EpCAM+ MB468 tumors” value ([4]; listed as PLK1 EpCAM-AsiCs) was “caused complete tumor regression of EpCAM+ TNBC xenografts”. For the same molecule, the “PLK1 siRNA bound to Ago / in the RISC” value [6] was “PLK1 siRNA immunoprecipitated with Ago; also recorded: PLK1 siRNA was found in the RISC”.
